Patent US20250223358A1 (ANTENGENE BIOLOGICS, published 2025)
Read-outs that look alike come from different tables or passages of the source.

Columns and labels:
human CD3 [1] = biological target: T1, human CD3 (human, UniProt P07766 23-207; P04234 22-171; P09693 23-182); assay: FACS on Jurkat cells
T1 construct: whole, on cells; also called hCD3; CD3 on Jurkat cells

cynomolgus CD3 [2] = biological target: T2, cynomolgus CD3 (cynomolgus (Macaca fascicularis), UniProt Q95LI5 22-198; Q95LI8 22-171; Q95LI7 23-181); assay: FACS on 293T-cynoCD3mix cells
T2 construct: whole, on cells; composition of the 'mix' not defined; also called cynoCD3

human CD3 [3] = biological target: T1, human CD3; assay: cell-based or functional assay
human CD3 [4] = biological target: T1, human CD3; assay: FACS on Jurkat cells; remark: listed apart in the source
cynomolgus CD3 [5] = biological target: T2, cynomolgus CD3; assay: FACS on 293T-cynoCD3mix cells; remark: listed apart in the source
human CD3 [6] = biological target: T1, human CD3; assay: cell-based or functional assay; remark: listed apart in the source
human CD3 [7] = biological target: T1, human CD3; assay: FACS on HEK293T-hCD3mix cells; note: test concentration or dose not given here
human CD3 [8] = biological target: T1, human CD3; assay: FACS on Jurkat cells; remark: listed apart in the source
human CD3 [9] = biological target: T1, human CD3; assay: FACS on Jurkat cells; remark: listed apart in the source
human CD3 [10] = biological target: T1, human CD3; assay: cell-based or functional assay; remark: listed apart in the source

T1 sequence (P07766 23-207, chain 1 of 3): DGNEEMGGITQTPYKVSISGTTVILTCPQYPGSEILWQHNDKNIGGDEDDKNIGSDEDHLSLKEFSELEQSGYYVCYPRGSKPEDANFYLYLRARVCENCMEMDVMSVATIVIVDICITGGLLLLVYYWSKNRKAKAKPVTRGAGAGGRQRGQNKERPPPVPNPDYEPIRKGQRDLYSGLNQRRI
T1 sequence (P04234 22-171, chain 2 of 3): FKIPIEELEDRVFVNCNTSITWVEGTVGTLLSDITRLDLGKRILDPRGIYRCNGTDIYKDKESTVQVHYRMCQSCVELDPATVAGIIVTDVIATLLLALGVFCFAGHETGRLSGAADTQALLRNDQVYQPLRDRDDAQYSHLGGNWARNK
T1 sequence (P09693 23-182, chain 3 of 3): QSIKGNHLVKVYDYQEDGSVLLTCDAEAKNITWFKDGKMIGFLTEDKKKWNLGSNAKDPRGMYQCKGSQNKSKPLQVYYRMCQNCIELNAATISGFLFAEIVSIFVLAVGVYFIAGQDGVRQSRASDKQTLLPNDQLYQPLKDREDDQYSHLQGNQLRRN
T2 sequence (Q95LI5 22-198, chain 1 of 3): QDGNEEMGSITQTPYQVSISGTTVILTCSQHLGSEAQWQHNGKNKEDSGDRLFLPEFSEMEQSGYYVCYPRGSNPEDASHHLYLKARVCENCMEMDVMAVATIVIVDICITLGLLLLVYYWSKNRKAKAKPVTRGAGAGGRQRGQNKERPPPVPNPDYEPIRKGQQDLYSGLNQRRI
T2 sequence (Q95LI8 22-171, chain 2 of 3): as the sequence (P04234 22-171, chain 2 of 3) above, with I5V, N15K, I20V, S32T, D33N, I34N, T64A, S74N, V83L, H141R counted along it
T2 sequence (Q95LI7 23-181, chain 3 of 3): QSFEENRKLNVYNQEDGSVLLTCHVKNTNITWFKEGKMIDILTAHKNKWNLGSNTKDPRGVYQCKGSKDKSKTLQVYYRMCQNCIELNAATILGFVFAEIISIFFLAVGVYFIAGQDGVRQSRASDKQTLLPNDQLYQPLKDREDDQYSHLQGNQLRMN

Row | Binder | EC50 (human CD3 [1]) [nM] | Top signal (human CD3 [1]) | EC50 (cynomolgus CD3 [2]) [nM] | Top signal (cynomolgus CD3 [2]) | EC50 (Jurkat-NFAT-luciferase activation) (human CD3 [3]) [nM] | Top signal (Jurkat-NFAT-luciferase activation) (human CD3 [3]) | EC50 (human CD3 [4]) [nM] | Top FACS signal (human CD3 [4]) | FACS MFI (human CD3 [7]) [MFI] | other results
1 | ch126A11A4 (antibody, V domains shown) VH: QVQLQQPGTELVKPGASVKLSCKASGYTFTSYWMHWVKQRPEQGLEWIGNINPSNGDTNYNEKFKSKATLTVDKASNTAYMQLSSLTSEDSAVYYCGRDRSSQYYFDYWGQGTTLTVSS VL: DIVMSQSPSSLAVSAGEKVTMSCKSSQSLLNSRTRKNYLAWYQQKPGQSPKLLIYWASTRESGVPDRFTGSGSGTDFTLTISSVQAEDLAVYFCKQSFILRTFGGGTKLEIK | 0.567 | 1760 | 2.91 | 57000 | 33.6 | 682 |  |  |  | 
2 | ch147E11E2 (antibody, V domains shown) VH: QVQLQQPGTELVKPGTSVKLSCKASGYTFTSYWMHWVKQRPGQGLEWIGNINPSNGATNYNEKFKSKATLTVDKSSSTAYMQLSSLTSEDSAVYYCARDRSSQYYFDYWGQGTTLTVSS VL: DIVMSQSPSSLAVSAGEKVTMSCKSSQSLLNSRSRKNYLAWYQQKPGQSPKLLIYWASTRESGVPDRFTGSGSGTDFTLTISSVQAEDLAVYYCTQSYTLRTFGGGTKLEIK | 0.419 | 2780 | 2.19 | 53900 | 33 | 421 | 0.649 | 2780 |  | EC50 (cynomolgus CD3 [5]): 1.23 nM; Top signal (cynomolgus CD3 [5]): 17800; EC50_Fold change (Jurkat-NFAT-luciferase activation, normalized to ch147E11E2) (human CD3 [6]): 1 fold; Top FACS signal_Fold change (Jurkat-NFAT-luciferase activation, normalized to ch147E11E2) (human CD3 [6]): 1 fold
3 | ch147C6F3 (antibody, V domains shown) VH: QVQLQQPGTELVKPGASVKLSCKASGYTFDSYWMHWVKQRPGQGLEWIGNLNPSNGEINYNEKFKHKATLTVDKSSSTAYMQLSSLTSEDSAVYYCSRDRSSQYYFDYWGQGTTLTVSS VL: DIVMSQSPSSLAVSAGEKVTLSCKSSQSLLNSRTRKNYLAWYQQKSGQSPKLLMYWASTRESGVPDRFTGSGSGTDFTLTITNVQAEDLAVYYCKQSYILRTFGGGTKLEIK | 1.77 | 2280 | 4.15 | 55200 | 57.4 | 428 |  |  |  | 
4 | 7-D9-G10-H2 (antibody, V domains shown, mouse monoclonal (hybridoma) antibody) VH: EVQLQQSGPELVKPGASVKISCKASGYSFTGYFMNWVKQSHGKSLEWIGRFNPYNGDTFYNQNFKGKATLTVDKSSSTAHMELRSLTSEDSAVYYCARGDYWGQGTTLTVSS VL: not shown |  |  |  |  |  |  |  |  | 51000 | 
5 | 20-E11-E11-C2 (antibody, V domains shown, mouse monoclonal (hybridoma) antibody) VH: EVQLQQSGPEVVKPGASVKISCKASGYTFTDYYMNWVKQSHGKNLEWIGDINPIHGGISSNQKFSDKATLTVDKSSNTAYLELRSLTSEDSAIYYCARRIYYGYDWYFDVWGTGTTVTVSS VL: DIVLSQSPAIMSASPGERVTMTCSASSSVTSRYFFWYQQKPGSSPKLWIYSTSNLASGVPVRFSGSGSGTSYSLTINNMAAEDAATYYCQQYSTSPSTFGAGTKLELK |  |  |  |  |  |  |  |  | 55200 | 
6 | 16-F2-C11-D9 (antibody, V domains shown, mouse monoclonal (hybridoma) antibody) VH: EVQLQQSGPELVKPGASVKMSCKASGYTFTDFNIHWVKQSLGKSLEWIGYINPNDGGSTYNQKFKGKATLTINKSSSSAYMELRSLTSEDSAVYYCAIPFLDSWGQGTSVTVSS VL: TLMMTQSPSSMYASLGERVTITCKASQDINSYLRWYQQKPGKSPKTLIYGASSLVDGVPSRFSGRGSGQDYSLTISSLEYEDMGIYYCLQYDEVPLTFGAGTKLELK |  |  |  |  |  |  |  |  | 80300 | 
7 | 4-F12-F1-A4 (antibody, V domains shown, mouse monoclonal (hybridoma) antibody) VH: EVKLVESGGGLVKPGGSLKLSCAASGFTFSSYTMSWIRQTPAKRLEWVATISSGGGNTFYADSVKGRFTISRDNARNTLNLQMSSLRSEDTAMYYCARSLYYYDGTYVRKDYYAMDYWGQGSSVTVSS VL: DIQMTQSPASLSVSVGETVTISCRASENIFSNLAWYQQKQGKSPQLLVYAATNLAEGVPSRFSGSRSGTQFSLKINSLQSEDFGSYYCQQFWGTPWTFGGGTKLEVK |  |  |  |  |  |  |  |  | 16800 | 
8 | BMK-TCB (antibody, V domains shown, benchmark anti-CD3 antibody; also called anti-CD3 antibody developed by Roche) VH: not shown VL: QAVVTQEPSLTVSPGGTVTLTCGSSTGAVTTSNYANWVQEKPGQAFRGLIGGTNKRAPGTPARFSGSLLGGKAALTLSGAQPEDEAEYYCALWYSNLWVFGGGTKLTVL | 1.91 | 3140 |  |  | 59.4 | 753 | 1.35 | 2370 |  | EC50_Fold change (Jurkat-NFAT-luciferase activation, normalized to ch147E11E2; mean) (human CD3 [6]): 2.24 fold; Top FACS signal_Fold change (Jurkat-NFAT-luciferase activation, normalized to ch147E11E2; mean) (human CD3 [6]): 0.5 fold; EC50 (human CD3 [8]): 1.3 nM; Top FACS signal (human CD3 [8]): 2570; EC50 (human CD3 [9]): 1.6 nM; Top FACS signal (human CD3 [9]): 1740; EC50_Fold change (Jurkat-NFAT-luciferase activation, normalized to ch40-C12-C10-E9; mean) (human CD3 [10]): 8.17 fold; Top FACS signal_Fold change (Jurkat-NFAT-luciferase activation, normalized to ch40-C12-C10-E9; mean) (human CD3 [10]): 0.48 fold
9 | BMK-B219 (antibody, V domains shown, benchmark anti-CD3 antibody; also called anti-CD3 antibody developed by JNJ (Johnson & Johnson)) VH: EVQLVESGGGLVQPGGSLRLSCAASGFTFNTYAMNWVRQAPGKGLEWVARIRSKYNNYATYYAASVKGRFTISRDDSKNSLYLQMNSLKTEDTAVYYCARHGNFGNSYVSWFAYWGQGTLVTVSS VL: QTVVTQEPSLTVSPGGTVTLTCRSSTGAVTTSNYANWVQQKPGQAPRGLIGGTNKRAPGTPARFSGSLLGGKAALTLSGVQPEDEAEYYCALWYSNLWVFGGGTKLTVL | 1.47 | 3000 | 4.34 | 60000 | 68.4 | 811 |  |  |  | 
10 | hu147E2-L3H2 (antibody, V domains shown, humanized 147E11E2; also called hu14E2-L3H2) VH: EVQLVQSGAEVKKPGSSVKVSCKASGYTFTSYWMHWVRQAPGQGLEWMGNINPSNGATNYNEKFKSRVTITADKSTSTAYMELSSLRSEDTAVYYCARDRSSQYYFDYWGQGTTVTVSS VL: DIQMTQSPSSLSASVGDRVTITCKSSQSLLNSRSRKNYLAWYQQKPGKAPKLLIYWASTRESGVPSRFSGSGSGTDFTLTISSLQPEDFATYYCTQSYTLRTFGGGTKVEIK |  |  |  |  |  |  | 0.891 | 2730 |  | EC50 (cynomolgus CD3 [5]): 1.77 nM; Top signal (cynomolgus CD3 [5]): 19200; EC50_Fold change (Jurkat-NFAT-luciferase activation, normalized to ch147E11E2) (human CD3 [6]): 1.66 fold; Top FACS signal_Fold change (Jurkat-NFAT-luciferase activation, normalized to ch147E11E2) (human CD3 [6]): 0.76 fold
11 | hu147E2-L3H4 (antibody, V domains shown, humanized 147E11E2; also called hu14E2-L3H4) VH: EVQLVQSGAEVKKPGSSVKVSCKASGYTFTSYWMHWVRQAPGQGLEWIGNINPSNGATNYNEKFKSRATLTVDKSTSTAYMELSSLRSEDTAVYYCARDRSSQYYFDYWGQGTTVTVSS VL: DIQMTQSPSSLSASVGDRVTITCKSSQSLLNSRSRKNYLAWYQQKPGKAPKLLIYWASTRESGVPSRFSGSGSGTDFTLTISSLQPEDFATYYCTQSYTLRTFGGGTKVEIK |  |  |  |  |  |  | 0.671 | 2680 |  | EC50 (cynomolgus CD3 [5]): 1.29 nM; Top signal (cynomolgus CD3 [5]): 16100; EC50_Fold change (Jurkat-NFAT-luciferase activation, normalized to ch147E11E2) (human CD3 [6]): 2.12 fold; Top FACS signal_Fold change (Jurkat-NFAT-luciferase activation, normalized to ch147E11E2) (human CD3 [6]): 0.6 fold
12 | 7-D8-G12-E4 (antibody, V domains shown, mouse monoclonal (hybridoma) antibody) VH: EVKLVESGGGLVKPGGSLKLSCAASGFTFSSYPMSWVRQTPAKRLEWVATISSGGGNTYYPDSVKGRFTISRDNARNTLYLQMSSLRSEDTAMYYCARGLYWYFDVWGAGTTVTVSS VL: DIVLTQSPLSLPVSLGDQASISCRSSQSIAHSNGDTYLEWYLQNPGQSPKLLIYKVSNRISGVPDRFSGSGSGTDFTLKISRVEAEDLGVYYCFQGSHVPYTFGGGTKLEIK |  |  |  |  |  |  |  |  | 65200 | 
13 | 8-B12-F9-B11 (antibody, V domains shown, mouse monoclonal (hybridoma) antibody) VH: EVQLVESGGGIVKPGGSRKLSCAASGFTFSDYGMHWVRQAPEKGLEWIAYISSASGKIYYADTVKGRFTISRDNAKNILFLQMTSLRSEDTAMYYCARVLRWSVNYVMDYWGQGTSVTVSS VL: DIVMTQSPSSLAVSAGEKVTMNCESSQSVLYSSNQKNYLAWYQQKPGQSPKLLIYWASTRESGVPDRFTGTGSGTDFTLTISSVQAEDLAVYYCHQYLSSWTFGGGTKLEIK |  |  |  |  |  |  |  |  | 67100 | 
